One molecule from article PMC4081097 can be followed below.

In this data set the target is T1, AbaSI-C3S (Acinetobacter baumannii SDF, UniProt B0VN39 1-321, C2S;C309S;C321S).
T1 sequence: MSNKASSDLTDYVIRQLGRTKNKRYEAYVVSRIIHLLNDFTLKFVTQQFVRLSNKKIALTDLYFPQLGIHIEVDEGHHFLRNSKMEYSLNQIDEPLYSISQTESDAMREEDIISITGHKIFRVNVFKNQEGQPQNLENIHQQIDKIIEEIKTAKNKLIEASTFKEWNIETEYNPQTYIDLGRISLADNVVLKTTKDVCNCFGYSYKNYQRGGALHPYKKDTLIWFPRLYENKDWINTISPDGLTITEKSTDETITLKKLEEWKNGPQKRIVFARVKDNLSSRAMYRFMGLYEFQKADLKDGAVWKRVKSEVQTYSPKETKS
As to the kind of experiment: X-ray crystallography.

B1: 14+4 product DNA (dsDNA)
DNA 1: TGCTCGATACAATAGGCC
DNA 2: TATTGTATCGAGCA
modifications: 5hmC at top position 5
In the case of B1, the binding result is recorded as “binds”.
